# Test results as given in paper doi:10.1101/560391 (bioRxiv, 2019).
# Tests used:
# [1] = molecular target: dCENP-A^C chimera, GFP-LacI fusion (Drosophila) (UniProt Q9V6Q2); assay: LacI/LacO tethering and co-recruitment in cells
# [2] = molecular target: (dCENP-A/dH4) dimer (Drosophila), Q9V6Q2; assay: SEC-MALS; settings: remark: other sources report otherwise
# SEC-MALS = molecular target: the molecule itself; assay: SEC-MALS
molecule,measurement,setting,value
CAL1-V5 (from UniProt Q9VEN2 1-979) (natural protein),CAL1 recruitment relative to WT dCENP-A,[1],60%
"recombinant CAL1(1-160), Q9VEN2 1-160 (domain or fragment) MANAVVDEETLEAMVYERSKAWSSKMADFASLEDGMEIDVAEFDNLFHGEDEDPDLDDVAKEAVEDNVPDEAKLEMGHINATSVTELTLILCANEDNEAKAEIEEILNQTVPVVEEHKRKWREAGLDRILDTFDEKQIEHHVGRWMRRHNSVYLEASPPK",stoichiometry N,[2],1
His-dCENP-C(1264-1411) (domain or fragment) GPVVFSTPLRDEQEEASTKLMQWLRGVGDAPPSASMSDENASVSSANELIFCQVDGIDYAFYNTKEKAMLGYMRFKPYQKRSMKQAKVHPLKLLVQFGEFNVETLAVGEEKEVHSVLRVGDMIEIDRGTRYSIQNAIDKVSVLMCIRS,stoichiometry N,SEC-MALS,2
